Test results reported in US20210238276A1 (INTEGRAL MOLECULAR, published 2021).
Positions count from the first letter of the chain named.

Assays:
Test in all cases: flow cytometry, alanine-scan library in HEK-293T, with cytochalasin B
hsGLUT4 E315A = target: T1, hsGLUT4 E315A (human, UniProt P14672 1-509)
T1 sequence: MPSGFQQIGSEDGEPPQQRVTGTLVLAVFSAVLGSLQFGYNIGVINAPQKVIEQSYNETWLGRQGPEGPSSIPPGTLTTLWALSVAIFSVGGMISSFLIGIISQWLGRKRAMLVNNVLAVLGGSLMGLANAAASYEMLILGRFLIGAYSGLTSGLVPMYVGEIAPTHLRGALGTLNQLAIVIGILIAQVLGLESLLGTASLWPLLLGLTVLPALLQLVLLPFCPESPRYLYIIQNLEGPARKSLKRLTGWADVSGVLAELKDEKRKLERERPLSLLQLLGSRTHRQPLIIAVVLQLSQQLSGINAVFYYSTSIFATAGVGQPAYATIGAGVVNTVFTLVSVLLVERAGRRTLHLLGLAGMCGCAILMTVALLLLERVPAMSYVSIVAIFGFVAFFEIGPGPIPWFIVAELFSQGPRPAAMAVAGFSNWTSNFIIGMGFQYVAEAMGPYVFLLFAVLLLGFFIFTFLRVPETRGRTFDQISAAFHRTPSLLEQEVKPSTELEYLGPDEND
Summary of the method: (§1)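 HEK-293T cells expressing individual GLUT4 alanine mutants were stained 48 h post-transfection with anti-GLUT4 scFv MAbs (2 μg/ml), then biotinylated secondary and streptavidin-PerCP, and read by high-throughput flow cytometry. Where used, cytochalasin B (10 uM final) was given for 30 min before and during primary antibody staining.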

hsGLUT4 G356A = target: T2, hsGLUT4 G356A (human, UniProt P14672 1-509)
T2 sequence: T1 sequence with A315E, G356A
Summary of the method: as §1

hsGLUT4 Y502A = target: T3, hsGLUT4 Y502A (human, UniProt P14672 1-509)
T3 sequence: T1 sequence with A315E, Y502A
Summary of the method: as §1

hsGLUT4 D506A = target: T4, hsGLUT4 D506A (human, UniProt P14672 1-509)
T4 sequence: T1 sequence with A315E, D506A
Summary of the method: as §1

B1: AB102 (Fc fusion)
scFv: ALTQPSSVSANLGGTVKITCSGGGSYGYGWYQQKSPGSAPVTVIYSNDQRPSDIPSRFSGSKSGSTATLTITGVRAEDEAIYYCGSTDSDYVGIFGAGTTLTVLGQSSRSSGGGGSSGGGGSAVTLDESGGGLQTPGGTLSLVCKASGFDFSSYATIWVRQAPGKGLEWVAGISGTGTGSSTGYAPAVKGRATISRDNGQSTVRLQLNNLRAEDTGSYFCAKSTGYGDSWIYPDSIDAWGHGTEVIVSS
notes: also called MAb AB102; not shown: Fc fragment of human IgG1, cloned in frame with the scFv
% of binding to wild type GLUT4 (hsGLUT4 E315A): 76% | % of binding to wild type GLUT4 (hsGLUT4 G356A): 72% | % of binding to wild type GLUT4 (hsGLUT4 Y502A): 94% | % of binding to wild type GLUT4 (hsGLUT4 D506A): 60%
